According to patent publication US20160046716A1 (Dana-Farber, published 2016):
One block for each molecule: values may come before it.

Experiments:
[1] = biological target: MICA antigen (UniGene Hs.130838) with a C-terminal BirA tag (human) (UniProt Q29983); test: flow cytometry of MICA-coated streptavidin beads, antibody directly conjugated to PE; legend box says 0.005ug, the label inside the plot says 1.2µg/ml (they disagree); streptavidin bead without MICA: 1.98
[2] = biological target: MICA antigen (UniGene Hs.130838) with a C-terminal BirA tag (human) (UniProt Q29983); test: flow cytometry of MICA-coated streptavidin beads, antibody directly conjugated to PE; legend box says 0.024ug, the label inside the plot says 0.01µg/ml (they disagree); streptavidin bead without MICA: 1.95
[3] = biological target: MICA antigen (UniGene Hs.130838) with a C-terminal BirA tag (human) (UniProt Q29983); test: flow cytometry of MICA-coated streptavidin beads, antibody directly conjugated to PE; legend box says 0.001ug, the label inside the plot says 0.24µg/ml (they disagree); streptavidin bead without MICA: 1.95
[4] = biological target: MICA antigen (UniGene Hs.130838) with a C-terminal BirA tag (human) (UniProt Q29983); test: flow cytometry of MICA-coated streptavidin beads, antibody directly conjugated to PE; legend box says 0.12ug, the label inside the plot says 0.05µg/ml (they disagree); streptavidin bead without MICA: 1.95
[5] = biological target: human MICA on transduced B16 melanoma cells (human) (UniProt Q29983); test: flow cytometry of B16 cells transduced with human MICA, antibody at 10 ug/ml; unstained 11.4; the same antibody on untransduced B16: 7.49 (unstained 7.12)
human MICA on transduced B16 melanoma cells (human), sequence (Q29983 24-383): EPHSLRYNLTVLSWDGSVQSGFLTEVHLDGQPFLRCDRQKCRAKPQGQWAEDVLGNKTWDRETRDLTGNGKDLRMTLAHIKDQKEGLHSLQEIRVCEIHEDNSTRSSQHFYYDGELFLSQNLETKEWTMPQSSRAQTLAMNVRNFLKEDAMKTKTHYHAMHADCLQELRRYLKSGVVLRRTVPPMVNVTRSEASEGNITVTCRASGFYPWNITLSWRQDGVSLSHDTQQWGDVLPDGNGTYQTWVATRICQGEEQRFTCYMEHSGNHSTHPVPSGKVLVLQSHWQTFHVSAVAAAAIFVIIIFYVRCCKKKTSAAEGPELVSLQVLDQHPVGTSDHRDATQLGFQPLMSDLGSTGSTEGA

[6] = biological target: MICA antigen (UniGene Hs.130838) with a C-terminal BirA tag (human) (UniProt Q29983); test: flow cytometry of MICA-coated streptavidin beads, antibody directly conjugated to PE; legend box says 0.0002ug, label inside the plot 0.002µg/ml; streptavidin bead without MICA: 2.16
[7] = biological target: MICA antigen (UniGene Hs.130838) with a C-terminal BirA tag (human) (UniProt Q29983); test: flow cytometry of MICA-coated streptavidin beads, Alexa488 anti-human IgG; antibody at 30µg/ml; streptavidin bead without MICA: 3.53
[8] = biological target: MICA antigen (UniGene Hs.130838) with a C-terminal BirA tag (human) (UniProt Q29983); test: flow cytometry of MICA-coated streptavidin beads, Alexa488 anti-human IgG; antibody at 1.2µg/ml; streptavidin bead without MICA: 2.16
[9] = biological target: MICA antigen (UniGene Hs.130838) with a C-terminal BirA tag (human) (UniProt Q29983); test: flow cytometry of MICA-coated streptavidin beads, Alexa488 anti-human IgG; antibody at 0.24µg/ml; streptavidin bead without MICA: 2.3
[10] = biological target: MICA antigen (UniGene Hs.130838) with a C-terminal BirA tag (human) (UniProt Q29983); test: flow cytometry of MICA-coated streptavidin beads, Alexa488 anti-human IgG; antibody at 0.05µg/ml; streptavidin bead without MICA: 2.18
[11] = biological target: MICA antigen (UniGene Hs.130838) with a C-terminal BirA tag (human) (UniProt Q29983); test: flow cytometry of MICA-coated streptavidin beads, Alexa488 anti-human IgG; antibody at 6µg/ml; streptavidin bead without MICA: 2.63
[12] = biological target: human MICA on transduced B16 melanoma cells (human) (UniProt Q29983); test: […], antibody at 10 ug/ml; […]
[13] = biological target: T1, recombinant MICA alpha 3 domain (human, UniProt Q29983 206-299); test: cytometric bead assay: biotinylated MICA alpha 3 domain on streptavidin beads, FITC anti-human IgG, flow cytometry
T1 construct: domain: alpha 3 domain; also called Alpha 3 MICA Domain
T1 sequence (looked up): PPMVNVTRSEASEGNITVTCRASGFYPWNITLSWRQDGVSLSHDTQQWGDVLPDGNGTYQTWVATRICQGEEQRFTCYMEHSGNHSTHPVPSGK

[14] = biological target: T2, recombinant MICA*009 conjugated to Luminex beads (commercial kit) (human, UniProt Q29983 26-307); test: Luminex bead assay (One Lambda kit), PE anti-human IgG secondary; bars assigned by their order in the legend box
T2 chain: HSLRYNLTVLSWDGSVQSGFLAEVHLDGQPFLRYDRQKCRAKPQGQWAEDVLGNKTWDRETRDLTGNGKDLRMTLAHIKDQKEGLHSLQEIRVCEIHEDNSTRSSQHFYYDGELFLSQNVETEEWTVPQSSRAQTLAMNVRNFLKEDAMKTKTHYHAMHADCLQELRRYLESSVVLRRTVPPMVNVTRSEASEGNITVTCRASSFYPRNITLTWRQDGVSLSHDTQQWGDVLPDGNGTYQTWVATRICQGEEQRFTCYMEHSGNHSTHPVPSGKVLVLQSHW

MICA antigen (UniGene Hs.130838) with a C-terminal BirA tag (human), sequence (Q29983 other isoform, or with tags, fused parts or gaps limits assumed): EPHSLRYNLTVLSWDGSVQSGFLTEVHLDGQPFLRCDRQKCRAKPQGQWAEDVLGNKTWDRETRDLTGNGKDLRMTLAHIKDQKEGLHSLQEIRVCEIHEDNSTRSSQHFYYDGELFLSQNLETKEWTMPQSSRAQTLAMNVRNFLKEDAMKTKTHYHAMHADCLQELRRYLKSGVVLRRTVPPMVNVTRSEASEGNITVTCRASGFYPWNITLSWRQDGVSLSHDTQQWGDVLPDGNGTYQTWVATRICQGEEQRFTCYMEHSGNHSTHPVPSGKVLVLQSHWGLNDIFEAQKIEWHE

- binding result [14]: no binding (tested: 200 µg/ml)
B3: MICA-Ab20 (antibody, V domains shown)
VH: QVQLQQWGAGLLKPSETLALTCAVSGGSFTDHYWSWIRQAPGKGLEWIGEINHSGVTNYNPSLKSRLTISVDTSKSQFSLRLTSVTAADTALYYCAKTGLYYDDVWGTFRPRGGFDSWGQGTLVTVSS
VL: DIVMTQSPDSLAVSLGERATINCKSSQSILYSSDNKNYLAWYQHKPGQPPKLLFYWASIRESGVPDRFSGGGSGTDFTLTISSLQAEDVAVYYCQQYYSPPCSFGQGTKLEIQ
notes: also called anti-MICA antibody ID-1; antibody ID 1

- binding result [13]: no binding (tested: 10 µg/ml)
B4: CM33322 Ab11 (antibody, V domains shown)
VH: QVQLQESGPGLVKPSENLSLTCTVSDASMSDYHWSWIRQAAGKGLEWIGRMYSTGSPYYKPSLKGRVTMSIDTSKNQFSLKLASVTAADTAIYYCASGQHIGGWVPPDFWGQGTLVTVSS
VL: DIVMTQTPLSSPVTLGQPASISCRSSEGLVYSDGDTYLSWFHQRPGQPPRLLIYKISNRFSGVPDRFSGSGAGTDFTLKISRVEAEDVGVYYCMQATHFPWTFGQGTKVEVKR
notes: also called CM33322 mAb11; CM33322 11

The remaining lines, values behind:

Molecule: commercial anti-MICA/MICB monoclonal antibody (clone 6D4, BioLegend)
- fluorescence value (statistic not given, FL2-H) [1]: 65.9
- fluorescence value (statistic not given, FL2-H) [2]: 194
- fluorescence value (statistic not given, FL2-H) [3]: 16.8
- fluorescence value (statistic not given, FL2-H) [4]: 391
- Geom. Mean:FL1-H [5]: 188
- fluorescence value (statistic not given, FL2-H) [6]: 4.31

Molecule: negative control antibody (TTCF specific)
- fluorescence value (statistic not given, FL1-H) [7]: 3.43
- fluorescence value (statistic not given, FL1-H) [8]: 2.27
- fluorescence value (statistic not given, FL1-H) [9]: 2.28
- fluorescence value (statistic not given, FL1-H) [10]: 2.23
- fluorescence value (statistic not given, FL1-H) [11]: 2.62
- Geom. Mean:FL1-H [12]: 11.5

B1: CM24002 Ab4 (antibody, V domains shown)
VH: QVQLQESGPGLVKPSGTLSLTCAVSGASITNGAWWSWVRQPPGKGLEWIGEIYLNGNTNSNPSLKSRVIISVDKSKNHFSLTLNSVTAADTAVYYCAKNAAYNLEFWGQGALVTVSS
VL: EIVLTQSPGTLSLSPGERATLSCRASQTVSSPYVAWYQQKRGQAPRLLIYGASTRATGIPDRFSGSGSGTDFTLTISRLEPEDFAVYYCQQYDRSYYYTFGQGTKLEIK
notes: also called anti-MICA antibody ID-7; antibody ID 7
- binding result [13]: no binding (tested: 10 µg/ml)

B2: CM24002 Ab2 (antibody, V domains shown)
VH: QVQLQESGPGLVEPSGTLSLTCTVSGGSISRSNWWSWVRQPPGEGLEWIGEIHHIGRSSYNPSLKSRVTMSVDKSQNQFSLRLTSVTAADTAVYYCAKNGYYAMDVWGQGTTVTVSS
VL: EIVLTQSPGTLSLSPGERATLSCRASQSVSSDFLAWYQQKPGQAPRLLIYATSFRATGISDRFSGSGSGTDFSLTINRLEPEDFAVYYCQHYRSSPPWYTFAQGTKLDMRRTVAAPSV
notes: also called anti-MICA antibody ID-6; antibody ID 6
- binding result [13]: no binding (tested: 10 µg/ml)
